Laboratory results taken from PMC11733250.

Target: T1, FKBP51, Q13451
T1 chain: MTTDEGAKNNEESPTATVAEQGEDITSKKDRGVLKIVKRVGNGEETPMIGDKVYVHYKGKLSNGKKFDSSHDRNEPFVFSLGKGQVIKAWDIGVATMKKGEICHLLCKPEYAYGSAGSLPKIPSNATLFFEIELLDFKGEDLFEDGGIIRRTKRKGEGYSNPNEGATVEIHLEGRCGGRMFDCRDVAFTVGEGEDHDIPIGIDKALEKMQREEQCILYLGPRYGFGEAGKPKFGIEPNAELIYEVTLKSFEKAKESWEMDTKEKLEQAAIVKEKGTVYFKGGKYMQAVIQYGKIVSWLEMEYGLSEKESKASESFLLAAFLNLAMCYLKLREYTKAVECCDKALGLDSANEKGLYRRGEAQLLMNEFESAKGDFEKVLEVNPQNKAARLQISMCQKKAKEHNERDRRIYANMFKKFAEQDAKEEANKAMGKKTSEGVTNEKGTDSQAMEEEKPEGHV
Experiment: ITC; 50 µM FKBP51 in the cell titrated with 750 µM p23; 25 °C; 25 mM HEPES, 10 mM KCl, 5 mM MgCl2, 1 mM DTT, pH 7.2; one set of binding sites
Details: remark: other sources report otherwise

Kd: 67 µM
B1: p23 wild-type (human co-chaperone p23, 160 amino acids), Q15185 1-160 (natural protein)
chain: MQPASAKWYDRRDYVFIEFCVEDSKDVNVNFEKSKLTFSCLGGSDNFKHLNEIDLFHCIDPNDSKHKRTDRSILCCLRKGESGQSWPRLTKERAKLNWLSVDFNNWKDWEDDSDEDMSNFDRFSEMMNNMGGDEDVDLPEVDGADDDSQDSDDEKMPDLE
